In the DeepSol protein solubility set:

Experiment: soluble on expression in E. coli; label from the status in PepcDB or PDB records

With “MDLELEPTLESIVQHDSLKWIFVGGKGGVGKTTTSSSVAVQLALAQPNEQFLLISTDPAHNLSDAFCQKFGKDARKVEGLPNLSCMEIDPEAAMSDLQQQASQYNNDPNDPLKSMMSDMTGSIPGIDEALSFMEVLKHIKNQKVLEGEDNSNAISYKTIIFDTAPTGHTLRFLQLPSTLEKLLSKFKDLSGKLGPMLSMMGGGQQQDIFEKLNEVQKNVSEVNEQFTNPELTTFICVCISEFLSLYETERMIQELMSYNMDVNSIVVNQLLFAEGDDHSCKRCESRWKMQKKYLDQMGELYEDYHLVKMPLLGCEIRGVENLKKFSKFLLKPYDPKADSDIVFDLEEK” as the sequence, how does the “soluble on expression in E. coli” value read?
Its value is “soluble”.

With “MAVLCGVCGIKEFKYKCPRCLVQTCSLECSKKHKTRDNCSGQTHDPKEYISSEALKQADDDKHERNAYVQRDYNYLTQLKRMVHVQKMDARMKNKRVLGPVGGHNSNFKKRRYDIDEDDRDSTECQRIIRRGVNCLMLPKGMQRSSQNRSKWDKTMDLFVWSVEWILCPMQEKGEKKELFKHVSHRIKETDFLVQGMGKNVFQKCCEFYRLAGTSSCIEGEDGSETKEERTQILQKSGLKFYTKTFPYNTTHIMDSKKLVELAIHEKCIGELLKNTTVIEFPTIFVAMTEADLPEGYEVLHQEPRPLEHTSTLNKFIDNAREEEDAEEDSQPTEEPVQKETQDASDSDSDSDDDYNPGLSMDFLTA” as the sequence, how does the “soluble on expression in E. coli” value read?
Its value is “not soluble”.

For “MTLIEPDMNLRMPDISTTVETLNLISKMEAQKENIRSVIAPEHKHKYKDIENGLKGEEKVLIEQMAQHCEAFKANFKGAAQGDWVKSAMSEIDSIKDDLKKINSLEHHHHHH”, which “soluble on expression in E. coli” value is on record?
Its value is “not soluble”.

Which “soluble on expression in E. coli” value does the source give for “MAVTEVKLNAPLAVGVWAKMLNTETSKALPIAPLMGKSKNSIIQVLDMLEKSAGDAVTSGLRVQLMGDGVSEGQTLEGNEEALQFMNEKVHINELTHAVRIKYEGSIDQQRIPFSLRQEAKDGLVDWYADRLSLMFFIQAAGYTAPWMQFEGRTITLKPVHYGFNAPSEPSKLRVIRPAKKKTDEELTKEDVFTLDLIDQAVERAKLANPRLRPVRVDGKSAYVMYLHPIQVTQLRTNTKSGQWLDITKAAYDGSGAKNPIFNGSLGMYNGVILREAEHVPNGVNSKTQEPVPSVRRAVLLGAQSIIMAYGRIGNGATGSNEENSETRYKLVEELFDYQREFGLAAKTIIGMKKSRYTLPHSDQGGQDFGTIVIPSFAEAS” here?
The value was “not soluble”.

Which “soluble on expression in E. coli” value does the source give for “MNPEEQIVTWLISLGVLESPKKTICDPEEFLKSSLKNGVVLCKLINRLMPGSVEKFCLDPQTEADCINNINDFLKGCATLQVEIFDPDDLYSGVNFSKVLSTLLAVNKATEDQLSERPCGRSSSLSAANTSQTNPQGAVSSTVSGLQRQSKTVEMTENGSHQLIVKARFNFKQTNEDELSVCKGDIIYVTRVEEGGWWEGTLNGRTGWFPSNYVREIKSSERPLSPKAVKGFETAPLTKNYYTVVLQNILDTEKEYAKELQSLLVTYLRPLQSNNNLSTVEVTSLLGNFEEVCTFQQTLCQALEECSKFPENQHKVGGCLLSLMPHFKSMYLAYCANHPSAVNVLTQHSDELEQFMENQGASSPGILILTTNLSKPFMRLEKYVTLLQELERHMEDTHPDHQDILKAIVAFKTLMGQCQDLRKRKQLELQILSEPIQAWEGEDIKNLGNVIFMSQVMVQYGACEEKEERYLMLFSNVLIMLSASPRMSGFIYQGKIPIAGTVVTRLDEIEGNDCTFEITGNTVERIVVHCNNNQDFQEWLEQLNRLIRGPASCSSLSKTSSSSCSAHSSFSSTGQPRGPLEPPQIIKPWSLSCLRPAPPLRPSAALGYKERMSYILKESSKSPKTMKKFLHKRKTERKPSEEEYVIRKSTAALEEDAQILKVIEAYCTSANFQQGHGSSTRKDSIPQVLLPEEEKLIIEETRSNGQTIMEEKSLVDTVYALKDEVRELKQENKRMKQCLEEELKSRRDLEKLVRRLLKQTDECIRGESSSKTSILP” here?
Its value is “soluble”.

For “MAHHHHHHMIYLIDNEDMIYIEFYRKKDCTFVYKFFNDTLPTGSTLSTSDVSAEYANIKYEINNNSCTVYSCDYSCLLKHKDYITIINNVLDKNLSDEILENYKNEKWLMYTKNDEEKLNLVIESNTLLRIKGKLRHEIIFGIPKKKKIQMQDKLMDRKNSYLVIFRFIREDNIKNFVTQKIKNKIPQNERQEKDCVPINVNEYTSEKLEKMYVLDVYNQIALHFGHTRAYEQEENVVGNRKFDSQDIFVPWYFQQQYKTEGYDDDAEGEGEEEPEKENEKEKEESHKFKPVKKGNMFKILKMKFFFFFYLLHNFRNIYIYNL”, which “soluble on expression in E. coli” value is on record?
The value was “soluble”.

Which “soluble on expression in E. coli” value does the source give for “RSDTIMVLSINPKEKKTELVSIPRDTKAEIAGRGTEEKINHAYAYGGPNMAVKTIEKLMNVPIDHYATIDMDGLHDMIDTLGGVDVVSNSTFTMGANHFVKGEKTHVDGDAAMDFIRSRKEDGAGGDFGRQERQQLILEAMADKLTS” here?
Its value is “not soluble”.

With “MGSDKIHHHHHHMRAEIRNLNVKGGHYYLELAEKDADTDKVIASCKATIWKFSASKIVLKFERETGIELASDLNVLIKIRARFDPQYGFSVNIEEIDSSFTLGEIAKRYQQIVERLTQEGLIHKNKLLPTPFDIQNVLVIAPQNAAGLGDFKKDADALERNGVCHFVYQSATFQGNTAAVSLMESLATGLKQWANNFNFPPDLIVIIRGGGAVNDLAYLNDYELAALLCKRSVPIWVGIGHEKDRTILDEIAHRSFDTPSKVIAGIRNHIVERVQEAVDNLQTIKLLSQHQITTYQSKSDQYLQHIKSSAQAQLNSAHQFLEQIKERIQFVSQQQVKFSLSQTESLMREILLQNPKQIQAKGYAIVRSEGKAIRSIHQITNSTITVDMQDGAINANITEVIPNE” as the sequence, how does the “soluble on expression in E. coli” value read?
The value was “not soluble”.

With “MLIRTEAPADILTVDRLVRSAFDTEAEAKLVMSLRENSHLTLALVACSDDGEVIGHCLFSPVTLNGDDLNWQGLAPLCVKKEHQKQGIAEALVKEGLEMLTELGYPVVVVLGDSNYYQRFGFESATNYDMHSKWEVPEGAFMIKACSSEFLEGRSGLIEYCPEFDVL” as the sequence, how does the “soluble on expression in E. coli” value read?
Its value is “not soluble”.

Which “soluble on expression in E. coli” value does the source give for “MLQNPPRITSTASIVGPKEGKGPLRLFFDNIIEDEMWGEKSWEKAESKLIRETFSKVLQKGNKTSQEIDYVISGDLLNQCIAANFGLRESDVPFFGVYGACSTIAESMSIGAMLVDGGFADNVVCITSSHFCSAEKQFRFPLELGTQRPPSAQWTVTGSGGVLISNDGSGPYITHITTGKIVDMGIKDANNMGAAMAPAAVDTIVTHFKDTGFTPESYDLILTGDLGAIGREICVELTREQGFNIENIYNDCGLMIYDREKQDTHAGGSGCGCAATVFAGFVYKKLMDGTLKNVLFVATGALLSPVSTQQGESIPSIAHAISITTSPERLEHHHHHH” here?
Its value is “not soluble”.

For “MAEKFIKHTGLVVPLDAANVDTDAIIPKQFLQKVTRTGFGAHLFNDWRFLDEKGQQPNPDFVLNFSQYQGASILLARENFGCGSSREHAPWALTDYGFKVVIAPSFADIFYGNSFNNQLLPVKLSDAEVDELFALVKANPGIHFDVDLEAQEVKAGEKTYRFTIDAFRRHCMMNGLDSIGLTLQHDDAIAAYEAKQPAFMR”, which “soluble on expression in E. coli” value is on record?
The value was “not soluble”.

For “AQQGVFTLPARINFGVTVLVNSAATQHVEIFVDNEPRAAFSGVGTGDNNLGTKVINSGSGNVRVQITANGRQSDLVSSQLVLANKLNLAVVGSEDGTDMDYNDSIVILNWPLG”, which “soluble on expression in E. coli” value is on record?
The value was “soluble”.

With “MNIFNPNHDRKAIVIFSGGQDSTTCLFQAIAEYGKENIEAITFQYGQRHAIELEKARTIAQDLGIKQTLIDTSVMKAITHNALMDEQAHIEQKENELPNTFVDGRNALFLLYAAIYAKGQGIQDIITGVCETDFSGYPDCRDVFIKSMNVTLNLAMDYPIPISKTPLMYLTKAQTWQLADEFRRIRLCTKTYSHLL” as the sequence, how does the “soluble on expression in E. coli” value read?
Its value is “not soluble”.

Which “soluble on expression in E. coli” value does the source give for “MSLAEQKPGEGQKTAIKIGVMIDLSGPLTTYGNSIKNTLEIAKEDINAYLEEKGLPYTVEFYVEDTKVDPKIALEKIQSLHSKGINLVIGPMGSGEVSNIKGYVQSNKIIIISPSSTLLPSLLGITKPEDKKYIFRFVGTDDLQTDAITAELKDLGIKAVIITYTGNDWGKGLYETIKPKLDAAGIEIVGEPVEYPSPPPADFSPYIATLESKLNDALQKYDASEVAVVAFSYEEAATMLAQTKDDSPLLNVLWLGCDGTALSDKMLEVCDKASKVRMLSTLFESKGEAYEQLAKKYKERGFGDSPYQYALNAYDAAWVLVLSYIEVVKEKGSYDPDAMNAKIPEVTEKYSKGEYGVKPVSGYIKLNEWNDRASGDYAIYEVTQDCKWQTAGIWKFTENKIEWLEGHHHHHH” here?
The value was “soluble”.

Which “soluble on expression in E. coli” value does the source give for “MDYQQDEYDEPFRIHLNLDNLTEDEAKARFSLIYDQHAQTMKRRETNDYLRPICIDGTDVSNKLNHIIRKNMDLFPVDKSIFNMRAITMALWYFISRGHAAVVFLPTNLRDFAQKCSDPHELSLLAKLELIVFDESTALNPSSAVLLSKTVATWAQNNDGCIVGSRKKYGLLGQRYSELIDRVTNTLISPAFTPDNELEICDLVRLVLAADEVRRNDENSNCMGYQLLASDQVVIMSKLAKMIGKDSMIDLCNRARELNTSTNPNYRNIFNNQKQSTSMGRVYQSPYHFNDPFLPDYVAPPPPIALESVAKPTRIGHRHSIYRVGEDKSTELENGDNRRKAVYRGALIDALQPMFGLEKATALVNGNPDQNEINDLIELGINQ” here?
The value was “not soluble”.

With “MDAEGNLFMSWRDGGTFGIARINEQQNIVTPLIEADAANRILYANGLTVDRATGMLTAAHESVKEVTFTFDPREAWYPRQRNIKYSQSDLNSIVDADRYKNFVTFCPYDGYLYTRYRDGKIAKIDPNTFEGHIIHQGPSGSQYGQAINPAKPWLLYITLHSNAPTAYRQGISVLDLRDPDGTGGFKRLNAPGGSAFRDGPIEDALFNYPKDIKFDNDGNMFVADYGNHCIRMISADNIVTTVAGQPGVAGYKDGGPVESLFKNPWGVAVNEQGDIYIADWGNARIRKLVIELEHHHHHH” as the sequence, how does the “soluble on expression in E. coli” value read?
Its value is “not soluble”.

Which “soluble on expression in E. coli” value does the source give for “MVKDLLEERARELGLLFAWAPLDLPQEAEARHRAWLEAGRHGGMAYLEAPERFHPRKRFPWAKSALLLFAPYAYPDPGTPPGGLRVGRVARYAWTRDYHLVLGEALKALEETARGLGLKAKGYVDHGPLPERTLAALSGAGWIGKSGYFLSQAFGVHAFIGVLLTPLEVEAAPLHPSRCGRCARCLSACPTEALLGDGTLDARACVSYLTIEHKGPIPPSLWPGIGDWLFGCDLCGEACPWERFGKVWKALRPEPELAHPDLLDFFRLSGRAFGRKYAGTAFLRAGRARMARNALIVLFNLGLGEALFLEATRDPNPLVRRTALRALHLMGKPLDPFLQDPGLREEALALLGEAPEAVHLLQDGREAPGPEVKEQGA” here?
The value was “not soluble”.

Which “soluble on expression in E. coli” value does the source give for “LNSVGQGEFGGAPFKRFLRGTRIVSGGKLKRMTREKAKQVTVAGVPMPRDAEPRHLLVNGATGTGKSVLLRELAYTGLLRGDRMVIVDPNGDMLSKFGRDKDIILNPYDQRTKGWSFFNEIRNDYDWQRYALSVVPRGKTDEAEEWASYGRLLLRETAKKLALIGTPSMRELFHWTTIATFDDLRGFLEGTLAESLFAGSNEASKALTSARFVLSDKLPEHVTMPDGDFSIRSWLEDPNGGNLFITWREDMGPALRPLISAWVDVVCTSILSLPEEPKRRLWLFIDELASLEKLASLADALTKGRKAGLRVVAGLQSTSQLDDVYGVKEAQTLRASFRSLVVLGGSRTDPKTNEDMSLSLGEHEVERDRYSKNTGKHHSTGRALERVRERVVMPAEIANLPDLTAYVGFAGNRPIAKVPLEIKQFANRQPAFVEGTI” here?
The value was “soluble”.

For “MSLRDEFSLIRSISPANVHQPSLHVGIGDDAAIYEGAPEMEEVLCVDTMVEEIHFRRDTLTPFQIGYKSLAINISDLAAMGATPKFYLVSIAVPPQWSDREIKTLYRGMAECAAPYRMDLIGGDTVSTNAKLVVTVTAVGHVPKGTRLLRQRARPGDVVFLTGTVGQSAAGLELLNKKGLHGPFTEEEELLVLAHQQPQPQVEAGHLFARSGYRIALNDVSDGVASEANELAEASKVKLVLKANTIPLHPAMETFSKEQQLEWALFGGEDFQLIGTAAVDAFASLQQLAIQRGISLTEIGYVEAGSPVVELEEGTARSVLKKSGYNHFAKEGHHHHHH”, which “soluble on expression in E. coli” value is on record?
The value was “soluble”.

Which “soluble on expression in E. coli” value does the source give for “SQDEVETEVIIKDIFKQGKICFIPQYQFQSNHMDMVRLTSPEEIALLPKTSWNIHQPGEGDVREEALSTGGLDLIFLPGLGFDKDGNRLGRGKGYYDTYLKRCVQHQEVKPYTMALAFKEQICPQIPVDEHDMKVDEVLYEDSPAS” here?
Its value is “not soluble”.
